The values below come from patent US20110300229A1, “TREATING OR PREVENTING ROTAVIRUS INFECTION” (FONTERRA CO-OPERATIVE GROUP LIMITED, priority 2007, published 2011).

Marks after values point to notes of the source that are not given here.

Experiment [1] deals with human Wa rotavirus. Conditions: cited from earlier work.
The test system of experiment [2] is human rotavirus strain Wa. Description: Rotavirus infection assay in HT29 cells (crystal violet, % uninfected cells). Type of experiment: cell-based. How it is done: The HT29 cell line was used to propagate the human rotavirus strain Wa (neuraminidase resistant) in the presence of 1 μg/ml trypsin in Dulbecco's minimal essential medium (DMEM) supplemented with 10% foetal calf serum and penicillin/streptomycin (100 μg/ml/100 units/ml). Rotavirus was harvested by freeze thawing twice, spun at 750 g to remove cell debris and stored at −80° C. The rotavirus was assayed and found to contain […] plaque forming units (pfu)/ml.
The infection assay used was based on a number of published assays (Scott et al 1979; Smith et al 1979; Guarino et al 1996; Superb et al 2001). Confluent HT29 cells grown in DMEM (seeded at 3×10^5/ml in 96 well plates) were washed twice in sterile PBS. Doubling dilutions of each of the products to be screened (initial concentration 5 mg/ml) were made in the plate in 50 μl volumes of DMEM. Virus was added (10^4 pfu/well) to all wells except the cells only control and plates were then incubated for two hours in 5% CO2 at 37° C. Other controls included virus plus cells, lipids only, pure GM3 and pure GD3. Following the two-hour incubation trypsin was added to all the wells containing virus at a concentration of 2 μg/ml—this step cleaves VP4 to polypeptides VP8 and VP5 and is needed for the virion to penetrate into the cells' interior. Plates were incubated at 37° C. in 5% CO2 for seven days and were checked daily for cytopathic effect in the virus only control wells. Media was removed and plates washed in sterile PBS, air-dried and fixed with methanol for one minute. Plates were air dried and then stained with 100 μl/well of 1% crystal violet (351884W, BDH, England) for five minutes. Plates were washed four times with sterile water to remove excess stain. 100 μl of acetic acid per well was added to solubilise the stain and absorbance was read at a wavelength of 595 nm in a Biorad ELISA plate reader. Each sample was assayed on a minimum of three separate occasions and the percentage of uninfected cells calculated.
Statistical analysis was performed using an unpaired Student t test (InStat for MacIntosh) to compare the effect of the lipid products derived from bovine milk with the virus only control at the lowest dilution of the product.

B1: bovine lactadherin: bovine milk fat globule membrane glycoprotein, cited from Kvistgaard et al, 2004 (protein, UniProt Q95114 19-427, looked up)
Lactadherin: ASGDFCDSSLCLHGGTCLLNEDRTPPFYCLCPEGFTGLLCNETEHGPCFPNPCHNDAECQVTDDSHRGDVFIQYICKCPLGYVGIHCETTCTSPLGMQTGAIADSQISASSMHLGFMGLQRWAPELARLHQTGIVNAWTSGNYDKNPWIQVNLMRKMWVTGVVTQGASRAGSAEYLKTFKVAYSTDGRQFQFIQVAGRSGDKIFIGNVNNSGLKINLFDTPLETQYVRLVPIICHRGCTLRFELLGCELNGCTEPLGLKDNTIPNKQITASSYYKTWGLSAFSWFPYYARLDNQGKFNAWTAQTNSASEWLQIDLGSQKRVTGIITQGARDFGHIQYVAAYRVAYGDDGVTWTEYKDPGASESKIFPGNMDNNSHKKNIFETPFQARFVRIQPVAWHNRITLRVELLGC
B1: the “prevention of human Wa rotavirus infection in vitro” value (“prevention” for short) in experiment [1] was “could not prevent”.

B2: bovine lactoferrin: bovine milk protein, result cited from Kvistgaard et al, 2004 (protein, UniProt P24627 20-708, looked up)
Lactotransferrin: APRKNVRWCTISQPEWFKCRRWQWRMKKLGAPSITCVRRAFALECIRAIAEKKADAVTLDGGMVFEAGRDPYKLRPVAAEIYGTKESPQTHYYAVAVVKKGSNFQLDQLQGRKSCHTGLGRSAGWIIPMGILRPYLSWTESLEPLQGAVAKFFSASCVPCIDRQAYPNLCQLCKGEGENQCACSSREPYFGYSGAFKCLQDGAGDVAFVKETTVFENLPEKADRDQYELLCLNNSRAPVDAFKECHLAQVPSHAVVARSVDGKEDLIWKLLSKAQEKFGKNKSRSFQLFGSPPGQRDLLFKDSALGFLRIPSKVDSALYLGSRYLTTLKNLRETAEEVKARYTRVVWCAVGPEEQKKCQQWSQQSGQNVTCATASTTDDCIVLVLKGEADALNLDGGYIYTAGKCGLVPVLAENRKSSKHSSLDCVLRPTEGYLAVAVVKKANEGLTWNSLKDKKSCHTAVDRTAGWNIPMGLIVNQTGSCAFDEFFSQSCAPGADPKSRLCALCAGDDQGLDKCVPNSKEKYYGYTGAFRCLAEDVGDVAFVKNDTVWENTNGESTADWAKNLNREDFRLLCLDGTRKPVTEAQSCHLAVAPNHAVVSRSDRAAHVKQVLLHQQALFGKNGKNCPDKFCLFKSETKNLLFNDNTECLAKLGGRPTYEEYLGTEYVTAIANLKKCSTSPLLEACAFLTR
Turning to B2, in experiment [1], the “prevention” value is on record as “could not prevent”.

B3: Lactoferrin: lactoferrin provided by Fonterra Co-operative Group Limited; comparative material (protein, UniProt P24627 20-708, looked up)
Lactotransferrin: APRKNVRWCTISQPEWFKCRRWQWRMKKLGAPSITCVRRAFALECIRAIAEKKADAVTLDGGMVFEAGRDPYKLRPVAAEIYGTKESPQTHYYAVAVVKKGSNFQLDQLQGRKSCHTGLGRSAGWIIPMGILRPYLSWTESLEPLQGAVAKFFSASCVPCIDRQAYPNLCQLCKGEGENQCACSSREPYFGYSGAFKCLQDGAGDVAFVKETTVFENLPEKADRDQYELLCLNNSRAPVDAFKECHLAQVPSHAVVARSVDGKEDLIWKLLSKAQEKFGKNKSRSFQLFGSPPGQRDLLFKDSALGFLRIPSKVDSALYLGSRYLTTLKNLRETAEEVKARYTRVVWCAVGPEEQKKCQQWSQQSGQNVTCATASTTDDCIVLVLKGEADALNLDGGYIYTAGKCGLVPVLAENRKSSKHSSLDCVLRPTEGYLAVAVVKKANEGLTWNSLKDKKSCHTAVDRTAGWNIPMGLIVNQTGSCAFDEFFSQSCAPGADPKSRLCALCAGDDQGLDKCVPNSKEKYYGYTGAFRCLAEDVGDVAFVKNDTVWENTNGESTADWAKNLNREDFRLLCLDGTRKPVTEAQSCHLAVAPNHAVVSRSDRAAHVKQVLLHQQALFGKNGKNCPDKFCLFKSETKNLLFNDNTECLAKLGGRPTYEEYLGTEYVTAIANLKKCSTSPLLEACAFLTR
On to B3, for which the “Percentage of HT29 cells uninfected by rotavirus” value in experiment [2] (0.3125 mg/ml) is 60 +/− 8 ** %; in experiment [2] (0.625 mg/ml) it was 65 +/− 8 *** %; in experiment [2] (1.25 mg/ml) it was 73 +/− 12 *** %; in experiment [2] (2.5 mg/ml), 87 +/− 4 *** %; in experiment [2] (5 mg/ml), 67 +/− 4 *** %.

B4: bovine MUC1 mucin: bovine milk mucin, cited from Kvistgaard et al, 2004 (protein, UniProt Q8WML4 23-580, looked up)
Mucin-1: NVPTLTTSDSINPRRTTPVSTTQSSPTSSPTKETSWSTTTTLLTASSPAPSPAASPGHDGASTPTSSPAPSPAASPGHDGASTPTSSPAPSPAASPGHDGASTPTSSPAPSPAASPGHDGASTPTSSPAPSPAASPGHNGTSSPTGSPAPSPAASPGHDGASTPTSSPAPSPAASPGHNGTSSPTGSPAPSPAASPGHDGASTPTSSPAPSPAASPGHNGTSSPTGSPAPSPTASPGHDSAPSLTSSPAPSPTASPGQHGASSPTSSDTSSMTTRSMSSSMVTSAHKGTSSRATMTPVSKGTPSSVPSSETAPTAASHITRTAASSPSIALSTSSNPKTSQQLSVRVSLYFLSFRITNLQFNSSLENPQTSYYQELQRSIWGLILQIYKQRDFLGLSEIKFRPGSVVVELTLAFREGTTAEWVKAQFSQLEAHAASYNLTISGVSVYSAPFPSSAQAGSGVPGWGIALLVLVCVLVALAIIYLIALVVCQCGRKKCEQLDVFPTLDAYHPMSEYSTYHTHGRYVPPGSTKRSPYEEVSAGNGGSNLSYTNLAATSANL
Turning to B4, in experiment [1], the “prevention” value is listed as “could not prevent”.
